Paper PMC5829826
Numbering of substitutions follows the chain as printed. pKd: −log10 of the molar value.

Assays:
Assay in all cases: EMSA
Details in all cases: 60 mM HEPES-KOH pH 7.5, 25 mM MgCl2, 5 mM EDTA, 300 mM KCl, 50 µg/ml BSA, 3 mM DTT, 24 ng labeled DNA, 20 min, room temperature
[1] = target: T1, Cra Y47E Y47E (Escherichia coli EHEC TUV93-0) (UniProt P0ACP1)
T1 sequence: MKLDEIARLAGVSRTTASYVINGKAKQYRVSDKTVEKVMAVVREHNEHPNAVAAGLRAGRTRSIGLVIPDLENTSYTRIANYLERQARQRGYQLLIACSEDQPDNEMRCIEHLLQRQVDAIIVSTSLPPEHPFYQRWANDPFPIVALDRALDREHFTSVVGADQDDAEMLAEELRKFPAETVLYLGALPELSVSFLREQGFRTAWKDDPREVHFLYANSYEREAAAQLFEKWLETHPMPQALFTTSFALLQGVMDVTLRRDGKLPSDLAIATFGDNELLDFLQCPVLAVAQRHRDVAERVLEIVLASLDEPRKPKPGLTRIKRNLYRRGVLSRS

[2] = target: T2, Cra WT (Escherichia coli EHEC TUV93-0) (UniProt P0ACP1)
T2 sequence: T1 sequence with E47Y

[3] = target: T3, Cra Y47F Y47F (Escherichia coli EHEC TUV93-0) (UniProt P0ACP1)
T3 sequence: T1 sequence with E47F

[4] = system: Cra WT (Escherichia coli EHEC TUV93-0)
[5] = system: Cra Y47F (Escherichia coli EHEC TUV93-0)
[6] = target: T4, PurR Y45F Y45F (Escherichia coli (TUV93-0?)) (UniProt P0ACP7)
T4 sequence: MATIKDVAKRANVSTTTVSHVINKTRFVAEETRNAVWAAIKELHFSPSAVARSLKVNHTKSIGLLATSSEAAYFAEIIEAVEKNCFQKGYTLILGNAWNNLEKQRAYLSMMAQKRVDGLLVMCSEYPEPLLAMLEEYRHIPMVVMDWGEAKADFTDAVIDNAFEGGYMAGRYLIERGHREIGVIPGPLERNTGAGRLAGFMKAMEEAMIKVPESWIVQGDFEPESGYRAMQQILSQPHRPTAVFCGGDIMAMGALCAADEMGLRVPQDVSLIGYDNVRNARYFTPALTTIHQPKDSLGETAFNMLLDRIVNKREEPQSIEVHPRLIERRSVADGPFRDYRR

[7] = target: T5, PurR Y45E Y45E (Escherichia coli (TUV93-0?)) (UniProt P0ACP7)
T5 sequence: T4 sequence with F45E

[8] = target: T6, PurR WT (Escherichia coli (TUV93-0?)) (UniProt P0ACP7)
T6 sequence: T4 sequence with F45Y

[9] = system: LacI Y47E Y47E, ORF:a00089fe
[10] = system: LacI Y47F Y47F, ORF:a00089fe
LacI WT, ORF:a00089fe = system: LacI WT, ORF:a00089fe

TTTACGGCTTTCCTTGCGTGCTGAAACAGAAGTATTATGCTTTCTTGAAACGTTTCAGCGCGATCTTGTCTTTAACCCTAAGCCAGGTTGGCGCTTTTTTTCTCATAGAAGCTGAATCGTTTCAATTCAGCAAGAGAGGAGAACTATGTTCCAGTTATCCGTACAGGACATCCATCCGGGCGAAAAGGCCGGAGACAAAGAAGAGGCGATTCGCCAGGTCGCTGCGGCGCTGGTGCAGGCCGGTAATGTAGCAGAAGGCTACGTCAATGGCATGCTG (double strand) [fruB regulatory fragment]
binding [1]: no binding | binding [2]: binds | binding [3]: binds

CATGTGCTGCGACTGCGTTCGCTTACCCCAATCACTTACTTATGTAAGCTCCTGGGGATTCACTCGCTTGCCGCCTTCCTGTAACTCGAATTAAGTAGAGTATAGTGAAACGGTTCAGCTTGGTTTTTATTCTGTTTTATTTGTTTATGCAATGAGATCTATCTTATAAAGAGAAACGCTTAACTAAATGGAAATGC (double strand) [LEE1 (ler) regulatory fragment]
binding [1]: no binding | pKd [2]: 6.95 | binding [2]: binds | pKd [3]: 6.89 | binding [3]: binds

LEE1 (ler) regulatory fragment
pKd [4]: 6.95 | binding signal (% reduction of binding vs no metabolite) [4]: 33 | pKd [5]: 6.89 | binding signal (% reduction of binding vs no metabolite) [5]: 33

CACCTCCTAACTACTTAAAATTGCTATCATTCGTTATTGTTATCTAGTTGTGCAAAACATGCTAATGTAGCCACCAAATCATACTACAATTTATTAACTGTTATCTATAATGGCGAAAAGCGATGCTGAAAGGTGTCAGCTTTGCAAAAATTTGATTTGGATCACGTAATCAGTACCCAGAAGTGAGTAATCTTGCTTACGCCACTTGGAAGTGACGCATTAGAGATAATAACTCTAATGTTTAAACTCTTTTAGTAAATCACAGTGAGTGTGTGCGC (double strand) [adhE regulatory fragment]
binding [1]: no binding | binding [2]: binds | binding [3]: binds

CGTAATCAATCCAGACCATATGTGTCCCACGATTTTACGCCCTGTCATCCTGTTCGGGGGCGCATTCTAACAGAAAAAGAAAACGTTTGCGTAGGGATTTCCTTCCCGCGCATCAATAAAAATGGCGCTGAAAAAATATTCAACGCCATCGACTTTTTATGCCTTTGCGGCATCGGACAATGCGTGTCGGATGCGGCGTAAACGTCTTATCCGACCTACGGTTCTACC (double strand) [purF-cvpA regulatory fragment]
binding [6]: binds | binding [7]: no binding | binding [8]: binds

CGACGGCCAGTGAATCTGTAATCATAGTCATAGCTGTATCCTGTGTGAAATTGTTATCCGCTCACAATTTCACACAACATACGAGCCGGACGCATAGAGTGTAAAGCGTGGGGTGCCTAATGAGTGAGCTGACTCACATTAATTGCGTTGCGCTCACTGCCCGCTTTCCAGTCGGGAAACTTGTCGTGCCAGCTGCATTAATGAATCG (double strand) [lacO1O3 fragment]
binding [9]: no binding | binding [10]: binds | binding (LacI WT, ORF:a00089fe): binds
